Source: paper PMC4305340
Like-named read-outs stand apart in the source and are kept apart here.

B1: Phly PrfA box (dsDNA)
DNA 1: TGAGGCATTAACATTTGTTAACGACGAT
DNA 2: ATCGTCGTTAACAAATGTTAATGCCTCA
B2: PactA PrfA box (dsDNA)
DNA 1: AACTGATTAACAAATGTTAGAGAAAACT
DNA 2: AGTTTTCTCTAACATTTGTTAATCAGTT

Columns and labels:
Experiment in all cases: fluorescence polarization
PrfA(C/A)4 = PrfA(C/A)4 (Listeria monocytogenes, UniProt P22262 1-237, C38A;C144A;C205A;C229A)
PrfA wild type [1] = target: T1, PrfA wild type (Listeria monocytogenes, UniProt P22262 1-237)
PrfA wild type [2] = target: T1, PrfA wild type; remark: listed apart in the source

| Binder | Kd (PrfA(C/A)4) [nM] | Kd (PrfA wild type [1]) [nM] | Kd (PrfA wild type [2]) [nM] |
| --- | --- | --- | --- |
| B1 | 32.8 | 34.2 |  |
| B2 | 125 |  | 96.4 |
